Test results: patent US20110135573A1 (DYAX, published 2011)
Positions count from the first letter of the chain named.

T1: MMP-7 (Biomol SE-181) (UniProt P09237 95-267)
T1 sequence (looked up): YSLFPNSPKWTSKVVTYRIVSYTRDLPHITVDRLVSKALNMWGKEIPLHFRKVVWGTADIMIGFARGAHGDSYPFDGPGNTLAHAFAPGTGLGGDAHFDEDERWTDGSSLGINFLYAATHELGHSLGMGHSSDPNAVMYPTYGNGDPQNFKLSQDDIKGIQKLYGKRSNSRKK

T2: MMP-1 (Biomol SE-180) (UniProt P03956 100-269, limits assumed)
T2 sequence (looked up): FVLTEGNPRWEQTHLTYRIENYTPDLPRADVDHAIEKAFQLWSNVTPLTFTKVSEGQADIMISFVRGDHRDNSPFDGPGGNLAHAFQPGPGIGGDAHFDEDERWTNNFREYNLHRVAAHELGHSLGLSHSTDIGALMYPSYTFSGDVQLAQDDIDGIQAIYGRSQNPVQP

T3: MMP-26 (Dyax prep #020209) (UniProt Q9NRE1 90-261, limits assumed)
T3 sequence (looked up): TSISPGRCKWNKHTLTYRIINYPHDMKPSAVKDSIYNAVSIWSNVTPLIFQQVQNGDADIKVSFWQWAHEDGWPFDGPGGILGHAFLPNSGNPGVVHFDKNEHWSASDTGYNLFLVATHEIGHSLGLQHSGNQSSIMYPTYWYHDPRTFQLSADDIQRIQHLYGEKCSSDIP

B1: 539A-M0166-F10 (antibody, V domains shown)
VH: EVQLLESGGGLVQPGGSLRLSCAASGFTFSPYLMNWVRQAPGKGLEWVSSIYSSGGGTGYADSVKGRFTISRDNSKNTLYLQMNSLRAEDTAVYYCARIYHSSSGPFYGMDVWGQGTTVTVSS
VL: QSELTQPPSASAAPGQRVTISCSGSSSNIGSNTVTWYQKLPGTAPKLLIYNNYERPSGVPARFSGSKSGTSASLAISGLQSEDEADYYCATWDDSLIANYVFGSGTKVTVLG
notes: also called DL15
B2: M0279-A03 (Fab, V domains shown)
VH: EVQLLESGGGLVQPGGSLRLSCAASGFTFSQYPMWWVRQAPGKGLEWVSYIVPSGGRTYYADSVKGRFTISRDNSKNTLYLQMNSLRAEDTAVYYCAKDRAYGDYVGWNGFDYWGQGTLVTVSS
VL: DIQMTQSPATLSVSPGERVTLSCKASHSISRNLAWYQQKPGQAPRLLIFGASTRATGIPARFSGSGSGTEFTLTISSLEAEDFAVYYCQQRRNWPVTFGPGTKLDFK
notes: sFab; variable domains only; also called M279-A03; M279-A03 sFab
B3: M0279-B02 (Fab, V domains shown)
VH: B2 VH
VL: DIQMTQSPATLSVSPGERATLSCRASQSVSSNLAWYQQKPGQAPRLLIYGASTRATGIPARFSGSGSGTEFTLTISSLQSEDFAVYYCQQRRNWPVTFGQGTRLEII
notes: sFab; variable domains only; also called M279-B02
B4: X0106-A01 (antibody, V domains shown)
VH: B2 VH with Q31H, P33D, Y50V, V52Y, P53S, R57P, Y59F
VL: EIVLTQSPATLSLSPGERATLSCRASQSISSFLAWYQQKPGQAPRLLIYDASYRATGIPARFSGSGSGTDFTLTISSLEPEDFAVYYCQQRGNWPITFGQGTRLEIK
notes: Produced and tested as IgG1; germlined, optimized version of M0256-D11; also called X106-A01; X106-A01 IgG
B5: M0078-G07 (Fab, V domains shown)
VH: EVQLLESGGGLVQPGGSLRLSCAASGFTFSSYTMEWVRQAPGKGLEWVSWISPSGGYTFYADSVKGRFTISRDNSKNTLYLQMNSLRAEDTALYYCARGYSYGSIDLWGRGTLVTVSS
VL: DIQMTQSPGTLSVSPGERATLSCRASQSVSSDLAWYQHKPGQAPRLLIYGVSTKATGVPARFSGSGSGTEFTLTISSLQSEDLAVYYCQQYHNWPPLTFGGGTKVEIK
notes: variable domains only; also called Fab M0078-G07
B6: M0076-D03 (Fab, V domains shown)
VH: EVQLLESGGGLVQPGGSLRLSCAASGFTFSLYRMNWVRQAPGKGLEWVSYIGSSGGATAYADSVKGRFTISRDNSKNTLYLQMNSLRAEDTAVYYCARGAWYLDSWGQGTLVTVSS
VL: DIQMTQSPSSLSASVGDRVTITCRASQGIRNDLDWYQQKPGTAPKRLIYSASNLQSGVPSRFSGSGSGTEFTLTISNLQPEDLATYFCLQHNSFPLTFGQGTKVEIK
notes: variable domains only

What was measured:
[1] = molecular target: T4, human pro-MMP-9 (R&D, 911-MP) (human, UniProt P14780 20-707); assay: SPR (Biacore 3000), antibody amine-coupled (direct capture)
T4 construct: Pro-enzyme; also called Pro-huMMP-9
Protocol: (§1) Experiments were performed at 25° C. with the help of a Biacore 3000 instrument. The MMP-9 binding protein (M0166F10) and the M0237-D02 antibody were coated to a CM5 chip either via standard amine coupling or using an anti-Fc antibody surface. Then either the active, human MMP-9 catalytic domain (BIOMOL, SE-244), the human pro-MMP-9 (R&D, 911-MP), the human TIMP-1 (R&D, 970-TM) or a h-MMP-9/h-TIMP-1 complex were flowed over the antibody surfaces, and binding was recorded.
(§2) It was shown that the human MMP-9 catalytic domain binds to M0166-F10, whether this antibody is directly captured via amine coupling or captured with an anti-Fc antibody surface.

h-MMP-9/h-TIMP-1 complex = molecular target: T5, h-MMP-9/h-TIMP-1 complex (human, UniProt P14780 107-457; P01033 24-207, limits assumed); assay: as above
T5 construct: Preformed non-covalent complex flowed over the antibody surfaces; also called huTIMP-1/cat-huMMP-9; h-TIMP-1/h-MMP-9 complex
Protocol: as §1, §2

[2] = molecular target: T6, human TIMP-1 (R&D, 970-TM) (human, UniProt P01033 24-207); assay: as above
T6 construct: also called huTIMP-1; h-TIMP-1
Protocol: as §1, §2

[3] = molecular target: MMP-16 (Calbiochem #475939) (UniProt P51512 120-292, limits assumed); assay: cell-based or functional assay
MMP-7 (Biomol SE-181) = molecular target: T1, MMP-7 (Biomol SE-181); assay: cell-based or functional assay
MMP-8 (Biomol SE-255) = MMP-8 (Biomol SE-255) (UniProt P22894 100-262, limits assumed); assay: cell-based or functional assay
MMP-14 (Biomol SE-259) = MMP-14 (Biomol SE-259) (UniProt P50281 112-284, limits assumed); assay: cell-based or functional assay
[4] = molecular target: MMP-15 (Calbiochem #475938) (UniProt P51511 132-304, limits assumed); assay: cell-based or functional assay
MMP-1 (Biomol SE-180) = molecular target: T2, MMP-1 (Biomol SE-180); assay: cell-based or functional assay
MMP-13 (Biomol SE-246) = MMP-13 (Biomol SE-246) (UniProt P45452 104-274); assay: cell-based or functional assay
MMP-12 (Biomol SE-138) = MMP-12 (Biomol SE-138) (UniProt P39900 106-263, limits assumed); assay: cell-based or functional assay
MMP-10 (Biomol SE-329) = MMP-10 (Biomol SE-329) (UniProt P09238 99-265, limits assumed); assay: cell-based or functional assay
TACE (R&D Systems) = TACE (R&D Systems) (UniProt P78536 215-671, limits assumed); assay: cell-based or functional assay
[5] = molecular target: MMP-3 (R&D Systems #513-MP) (UniProt P08254 18-477, limits assumed); assay: cell-based or functional assay
[6] = molecular target: T7, human MMP-2 (Biomol #SE-237) (human, UniProt P08253 110-452, limits assumed); assay: Ki,app, enzyme inhibition assay (fluorogenic peptide substrate), medium-scale sFab
T7 construct: also called hMMP-2

[7] = molecular target: T8, Mouse MMP-9 (R&D, 909-MM), APMA-activated (mouse, UniProt P41245 108-730, limits assumed); assay: as above
T8 construct: also called mMMP-9; mouse MMP-9 (R&D Systems #909-MM-010)

[8] = molecular target: T9, Human MMP-9 catalytic domain (BIOMOL, SE-244) (human, UniProt P14780 107-457, limits assumed); assay: as above
T9 construct: domain: catalytic domain; also called Cat-huMMP-9; cat-huMMP-9

[9] = molecular target: T9, Human MMP-9 catalytic domain (BIOMOL, …); assay: Ki,app, enzyme inhibition assay (fluorogenic peptide substrate), small-scale sFab
[10] = molecular target: T3, MMP-26 (Dyax prep #020209); assay: cell-based or functional assay
[11] = molecular target: T7, human MMP-2 (Biomol #SE-237); assay: Ki,app, enzyme inhibition assay (fluorogenic peptide substrate), IgG
[12] = molecular target: T8, Mouse MMP-9 (R&D, 909-MM), …; assay: as above
[13] = molecular target: T9, Human MMP-9 catalytic domain (BIOMOL, …); assay: as above
MMP-9 (PMA-activated) = MMP-9 (PMA-activated) (Homo sapiens (Human), UniProt P14780 107-707, Biotinylated for the phage selection; the biotin sites are not stated and the letters do not carry them.); assay: apparent KD; method not stated
Chain of MMP-9 (PMA-activated) (P14780 107-707 limits assumed, form in doubt): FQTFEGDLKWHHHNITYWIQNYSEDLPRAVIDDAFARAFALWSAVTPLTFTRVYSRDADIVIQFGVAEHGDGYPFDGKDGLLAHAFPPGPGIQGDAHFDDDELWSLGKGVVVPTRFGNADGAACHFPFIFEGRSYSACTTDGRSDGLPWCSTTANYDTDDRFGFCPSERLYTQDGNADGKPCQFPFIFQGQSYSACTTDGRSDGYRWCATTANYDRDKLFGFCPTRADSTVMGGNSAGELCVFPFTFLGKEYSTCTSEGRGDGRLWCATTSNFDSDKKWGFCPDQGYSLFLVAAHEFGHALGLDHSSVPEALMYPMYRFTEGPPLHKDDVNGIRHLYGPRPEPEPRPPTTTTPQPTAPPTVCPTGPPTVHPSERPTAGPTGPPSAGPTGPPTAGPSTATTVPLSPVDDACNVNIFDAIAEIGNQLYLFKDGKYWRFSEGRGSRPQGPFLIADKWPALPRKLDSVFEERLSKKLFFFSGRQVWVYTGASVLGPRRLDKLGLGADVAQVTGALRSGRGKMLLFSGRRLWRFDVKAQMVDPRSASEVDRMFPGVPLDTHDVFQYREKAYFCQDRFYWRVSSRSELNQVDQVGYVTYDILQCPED

Chain of MMP-12 (Biomol SE-138) (P39900 106-263 limits assumed): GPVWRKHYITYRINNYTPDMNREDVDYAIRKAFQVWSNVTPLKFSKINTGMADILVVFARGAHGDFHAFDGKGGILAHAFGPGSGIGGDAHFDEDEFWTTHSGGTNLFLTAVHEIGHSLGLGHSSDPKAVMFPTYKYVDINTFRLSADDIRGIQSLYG
Chain of TACE (R&D Systems) (P78536 215-671 limits assumed): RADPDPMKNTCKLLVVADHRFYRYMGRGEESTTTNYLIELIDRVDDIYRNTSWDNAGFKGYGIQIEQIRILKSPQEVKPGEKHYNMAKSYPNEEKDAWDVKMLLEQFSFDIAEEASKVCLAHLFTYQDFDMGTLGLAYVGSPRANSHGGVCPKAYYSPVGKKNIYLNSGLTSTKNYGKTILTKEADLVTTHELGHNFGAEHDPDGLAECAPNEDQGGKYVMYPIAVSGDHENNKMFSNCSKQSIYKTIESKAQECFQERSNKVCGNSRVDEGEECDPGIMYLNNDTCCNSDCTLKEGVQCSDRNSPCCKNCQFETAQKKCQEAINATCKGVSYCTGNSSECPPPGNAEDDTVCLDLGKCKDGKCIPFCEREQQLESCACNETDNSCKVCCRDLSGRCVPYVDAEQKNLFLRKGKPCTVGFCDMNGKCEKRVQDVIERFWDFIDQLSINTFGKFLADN
T7 sequence (P08253 110-452 limits assumed): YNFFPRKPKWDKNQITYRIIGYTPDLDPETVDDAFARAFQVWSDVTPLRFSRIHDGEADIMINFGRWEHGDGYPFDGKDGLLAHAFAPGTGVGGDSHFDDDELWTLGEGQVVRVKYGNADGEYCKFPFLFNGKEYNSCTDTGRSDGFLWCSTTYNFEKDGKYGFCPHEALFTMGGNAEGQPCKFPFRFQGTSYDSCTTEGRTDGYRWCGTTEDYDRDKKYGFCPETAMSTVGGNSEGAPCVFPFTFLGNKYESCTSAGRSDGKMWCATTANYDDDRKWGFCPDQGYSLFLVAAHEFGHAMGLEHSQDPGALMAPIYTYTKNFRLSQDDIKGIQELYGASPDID
Chain of MMP-15 (Calbiochem #475938) (P51511 132-304 limits assumed): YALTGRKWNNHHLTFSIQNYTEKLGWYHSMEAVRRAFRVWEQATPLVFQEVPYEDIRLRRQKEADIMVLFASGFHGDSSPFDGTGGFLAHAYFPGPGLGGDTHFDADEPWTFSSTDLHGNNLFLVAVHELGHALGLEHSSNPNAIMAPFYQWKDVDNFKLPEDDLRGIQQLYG
Chain of MMP-16 (Calbiochem #475939) (P51512 120-292 limits assumed): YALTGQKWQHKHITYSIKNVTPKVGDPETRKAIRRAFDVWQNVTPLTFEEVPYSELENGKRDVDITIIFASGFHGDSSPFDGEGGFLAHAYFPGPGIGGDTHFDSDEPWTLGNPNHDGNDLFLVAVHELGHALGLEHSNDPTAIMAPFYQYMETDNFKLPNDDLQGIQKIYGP
Chain of MMP-10 (Biomol SE-329) (P09238 99-265 limits assumed): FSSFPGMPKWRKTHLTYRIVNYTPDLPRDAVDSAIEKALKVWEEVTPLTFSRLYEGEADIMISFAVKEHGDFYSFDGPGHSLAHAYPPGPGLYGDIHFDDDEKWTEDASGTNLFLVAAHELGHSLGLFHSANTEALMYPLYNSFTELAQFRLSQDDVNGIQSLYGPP
Chain of MMP-3 (R&D Systems #513-MP) (P08254 18-477 limits assumed): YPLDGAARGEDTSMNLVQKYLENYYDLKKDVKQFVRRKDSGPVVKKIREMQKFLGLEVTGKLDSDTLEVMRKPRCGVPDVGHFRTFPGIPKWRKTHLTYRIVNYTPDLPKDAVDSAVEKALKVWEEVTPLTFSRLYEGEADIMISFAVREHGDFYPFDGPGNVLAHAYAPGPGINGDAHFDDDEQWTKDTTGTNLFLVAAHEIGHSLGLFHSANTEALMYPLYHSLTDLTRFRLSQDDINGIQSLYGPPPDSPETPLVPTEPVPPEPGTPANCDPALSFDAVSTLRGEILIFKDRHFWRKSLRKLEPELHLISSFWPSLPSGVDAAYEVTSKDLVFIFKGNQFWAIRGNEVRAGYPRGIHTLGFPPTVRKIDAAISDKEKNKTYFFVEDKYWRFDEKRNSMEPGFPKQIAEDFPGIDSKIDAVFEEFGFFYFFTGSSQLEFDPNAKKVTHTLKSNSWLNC
Chain of MMP-8 (Biomol SE-255) (P22894 100-262 limits assumed): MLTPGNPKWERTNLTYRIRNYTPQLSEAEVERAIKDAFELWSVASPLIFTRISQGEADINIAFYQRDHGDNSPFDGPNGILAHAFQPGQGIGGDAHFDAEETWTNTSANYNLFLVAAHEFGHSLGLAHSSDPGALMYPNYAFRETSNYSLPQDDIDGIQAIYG
T8 sequence (P41245 108-730 limits assumed): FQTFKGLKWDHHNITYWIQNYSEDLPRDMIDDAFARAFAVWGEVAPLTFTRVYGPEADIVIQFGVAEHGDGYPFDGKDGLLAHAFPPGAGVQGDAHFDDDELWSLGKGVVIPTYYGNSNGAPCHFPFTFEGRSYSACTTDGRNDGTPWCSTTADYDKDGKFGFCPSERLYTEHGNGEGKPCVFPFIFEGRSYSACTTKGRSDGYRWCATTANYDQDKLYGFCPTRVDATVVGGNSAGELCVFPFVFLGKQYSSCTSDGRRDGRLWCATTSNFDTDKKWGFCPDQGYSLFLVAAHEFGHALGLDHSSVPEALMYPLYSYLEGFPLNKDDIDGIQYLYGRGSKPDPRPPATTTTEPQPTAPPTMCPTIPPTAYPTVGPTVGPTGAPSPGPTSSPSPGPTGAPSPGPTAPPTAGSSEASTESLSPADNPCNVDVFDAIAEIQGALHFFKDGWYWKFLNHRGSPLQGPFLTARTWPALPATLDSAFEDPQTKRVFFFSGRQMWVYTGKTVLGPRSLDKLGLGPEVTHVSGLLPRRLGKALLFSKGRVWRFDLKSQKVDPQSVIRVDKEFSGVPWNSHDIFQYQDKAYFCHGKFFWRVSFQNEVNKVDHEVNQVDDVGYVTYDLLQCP
T9 sequence (P14780 107-457 limits assumed): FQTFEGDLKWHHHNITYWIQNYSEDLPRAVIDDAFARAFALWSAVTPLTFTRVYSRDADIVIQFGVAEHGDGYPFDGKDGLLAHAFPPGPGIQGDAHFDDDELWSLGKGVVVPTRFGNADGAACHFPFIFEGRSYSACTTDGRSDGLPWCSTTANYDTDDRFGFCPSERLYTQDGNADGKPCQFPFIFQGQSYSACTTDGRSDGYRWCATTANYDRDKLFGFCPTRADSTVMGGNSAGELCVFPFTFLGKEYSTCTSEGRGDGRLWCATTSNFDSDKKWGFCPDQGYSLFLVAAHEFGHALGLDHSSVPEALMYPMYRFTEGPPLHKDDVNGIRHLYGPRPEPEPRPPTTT
T5 sequence (P14780 107-457 limits assumed, chain 1 of 2): as the sequence (P14780 107-457 limits assumed) above
T5 sequence (P01033 24-207 limits assumed, chain 2 of 2): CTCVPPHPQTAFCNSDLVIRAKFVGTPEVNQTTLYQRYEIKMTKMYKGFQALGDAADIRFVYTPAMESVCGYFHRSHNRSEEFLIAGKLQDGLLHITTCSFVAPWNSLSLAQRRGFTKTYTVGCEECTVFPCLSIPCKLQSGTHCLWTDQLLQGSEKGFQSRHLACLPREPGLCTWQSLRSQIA
T6 sequence (P01033 24-207 limits assumed): as the sequence (P01033 24-207 limits assumed, chain 2 of 2) above
T4 sequence (P14780 20-707): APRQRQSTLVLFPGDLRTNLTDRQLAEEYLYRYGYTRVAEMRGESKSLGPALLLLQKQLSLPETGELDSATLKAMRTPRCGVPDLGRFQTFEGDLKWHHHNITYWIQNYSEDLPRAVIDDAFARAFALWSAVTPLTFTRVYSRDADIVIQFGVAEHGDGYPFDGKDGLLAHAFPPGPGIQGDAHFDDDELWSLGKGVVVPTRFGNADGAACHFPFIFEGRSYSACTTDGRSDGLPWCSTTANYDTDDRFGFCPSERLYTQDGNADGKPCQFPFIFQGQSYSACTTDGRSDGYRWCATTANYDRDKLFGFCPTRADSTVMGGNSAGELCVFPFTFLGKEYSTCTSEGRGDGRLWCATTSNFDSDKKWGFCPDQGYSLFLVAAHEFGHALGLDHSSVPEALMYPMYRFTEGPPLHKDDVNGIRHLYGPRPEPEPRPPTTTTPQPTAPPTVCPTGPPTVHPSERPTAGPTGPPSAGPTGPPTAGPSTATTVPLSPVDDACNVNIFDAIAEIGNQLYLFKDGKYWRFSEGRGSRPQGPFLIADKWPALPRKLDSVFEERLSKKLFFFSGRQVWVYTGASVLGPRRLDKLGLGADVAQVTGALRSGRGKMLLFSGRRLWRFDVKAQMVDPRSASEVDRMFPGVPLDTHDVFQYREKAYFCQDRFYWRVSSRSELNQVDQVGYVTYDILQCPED

| Binder | IC50 (enzyme inhibition) [3] [nM] | IC50 (enzyme inhibition) (MMP-7 (Biomol SE-181)) [nM] | IC50 (enzyme inhibition) (MMP-8 (Biomol SE-255)) [nM] | IC50 (enzyme inhibition) (MMP-14 (Biomol SE-259)) [nM] | IC50 (enzyme inhibition) [4] [nM] | IC50 (enzyme inhibition) (MMP-1 (Biomol SE-180)) [nM] | IC50 (enzyme inhibition) (MMP-13 (Biomol SE-246)) [nM] | IC50 (enzyme inhibition) (MMP-12 (Biomol SE-138)) [nM] | IC50 (enzyme inhibition) (MMP-10 (Biomol SE-329)) [nM] | IC50 (enzyme inhibition) (TACE (R&D Systems)) [nM] | IC50 (enzyme inhibition) [5] [nM] | Ki [6] [nM] | Ki [7] [nM] | Ki [8] [nM] | Ki [9] [nM] | IC50 (enzyme inhibition) [10] [nM] | Kd (MMP-9 (PMA-activated)) [nM] | further results |
| --- | --- | --- | --- | --- | --- | --- | --- | --- | --- | --- | --- | --- | --- | --- | --- | --- | --- | --- |
| B1 |  |  |  |  |  |  |  |  |  |  |  |  |  |  |  |  |  | binding result [1]: no binding; binding result (h-MMP-9/h-TIMP-1 complex): no binding; binding result [2]: no binding |
| B2 | > 500 | > 500 | > 500 | > 500 | > 500 | > 500 | > 500 | > 500 | > 500 | > 500 | > 500 | > 430 | 24 | 1.6 | 2.2 |  |  |  |
| B3 | > 1000 | > 1000 | > 1000 | > 1000 | > 1000 | > 1000 | > 1000 | > 1000 | > 1000 | > 1000 | > 1000 | > 1000 | 64 | 6.5 | 2.6 | > 1000 |  |  |
| B4 | > 1000 | 900 | > 1000 | > 1000 | > 1000 | > 1000 | > 1000 | > 1000 | > 1000 | > 1000 | > 1000 |  |  |  |  | 12 |  | Ki [11]: 0.34 nM; Ki [12]: 0.25 nM; Ki [13]: 0.1 nM |
| B5 |  |  |  |  |  |  |  |  |  |  |  |  |  |  |  |  | 3.1 |  |
| B6 |  |  |  |  |  |  |  |  |  |  |  |  |  |  |  |  | 5.9 |  |
